Laboratory results taken from doi:10.1101/659037.

Tests used:
[1] = molecular target: rPrP90-231 (globular domain of recombinant prion protein) (murine, UniProt P04925 90-231); assay: ITC
[2] = molecular target: rPrP23-231 (full-length recombinant prion protein) (murine, UniProt P04925 23-231); assay: ITC

Binder: TGGTGGTAACAGACCCTTCCACGGC (ssDNA) [A2]
- Kd [1]: 1.93 µM
- Kd [2]: 1.47 µM

Binder: CCGCGTACAATCGAGCTCGGGTGTC (structured_DNA) [A1]
- Kd [1]: 0.232 µM
- Kd [2]: 0.838 µM
